According to paper PMC3372094:

Target: calmodulin-binding domain of the original SK2 channel, SK2-a (UniProt P70604)
Test: ITC

Chain of UniProt P70604 (P70604 396-487): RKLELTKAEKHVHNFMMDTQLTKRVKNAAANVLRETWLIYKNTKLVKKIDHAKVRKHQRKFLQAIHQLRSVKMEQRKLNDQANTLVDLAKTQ

calmodulin (rat) (from UniProt P0DP29 1-149) (natural protein; other documents disagree on this pair)
dH of the first site (rising phase, two-site fit): -34.7 kcal/mol
